Source: article PMC2756588

Experiments:
Experiment in all cases: SPOT array
[1] = target: Rvs167, P39743; details: median of control spots 2707
[2] = target: GST; details: median of control spots 978
[3] = target: T1, Bzz1-2, P38822; details: median of control spots 4538
T1 sequence (P38822 568-633, looked up): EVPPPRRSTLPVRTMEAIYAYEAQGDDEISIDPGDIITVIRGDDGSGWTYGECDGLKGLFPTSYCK

[4] = target: T2, Pex13, P80667; details: median of control spots 1341
T2 sequence (P80667 295-386, looked up): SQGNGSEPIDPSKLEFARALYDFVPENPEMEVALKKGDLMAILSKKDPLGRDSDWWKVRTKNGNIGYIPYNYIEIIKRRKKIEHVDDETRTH

[5] = target: T3, Boi2, P39969; details: median of control spots 1161
T3 sequence (P39969 32-116, looked up): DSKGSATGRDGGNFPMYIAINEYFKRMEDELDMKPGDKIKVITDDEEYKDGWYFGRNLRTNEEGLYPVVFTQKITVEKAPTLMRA

[6] = target: T4, Boi1, P38041; details: median of control spots 1162
T4 sequence (P38041 1-86, looked up): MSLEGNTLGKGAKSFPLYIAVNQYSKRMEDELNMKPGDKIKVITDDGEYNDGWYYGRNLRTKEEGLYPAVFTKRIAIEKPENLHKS

[7] = target: T5, Pin3, Q06449; details: median of control spots 2171
T5 sequence (Q06449 53-122, looked up): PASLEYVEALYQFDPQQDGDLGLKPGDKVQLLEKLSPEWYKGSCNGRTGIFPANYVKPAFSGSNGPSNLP

[8] = target: Myo3, P36006; details: median of control spots 468
[9] = target: Bem1-2, P29366; details: median of control spots 4347
[10] = target: T6, Sla1-2, P32790; details: median of control spots 712
T6 sequence (P32790 60-140, looked up): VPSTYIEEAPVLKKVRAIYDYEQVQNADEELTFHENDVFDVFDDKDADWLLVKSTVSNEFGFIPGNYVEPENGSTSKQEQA

[11] = target: T7, Fus1, P11710; details: median of control spots 1200
T7 sequence (P11710 432-512, looked up): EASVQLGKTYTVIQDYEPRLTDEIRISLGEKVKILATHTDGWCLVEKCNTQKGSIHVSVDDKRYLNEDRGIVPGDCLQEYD

[12] = target: T8, Lsb3, P43603; details: median of control spots 406
T8 sequence (P43603 385-451, looked up): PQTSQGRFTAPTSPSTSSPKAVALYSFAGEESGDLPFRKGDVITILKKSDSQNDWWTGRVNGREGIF

[13] = target: T9, Bzz1-1, P38822; details: median of control spots 4446
T9 sequence (P38822 478-572, looked up): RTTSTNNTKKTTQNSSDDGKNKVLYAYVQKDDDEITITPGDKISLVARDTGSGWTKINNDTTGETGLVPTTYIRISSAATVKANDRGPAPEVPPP

[14] = target: T10, Abp1, P15891; details: median of control spots 935
T10 sequence (P15891 535-592, looked up): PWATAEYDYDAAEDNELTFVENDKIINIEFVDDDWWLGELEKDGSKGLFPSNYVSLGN

[15] = target: T11, Hse1, P38753; details: median of control spots 1727
T11 sequence (P38753 208-285, looked up): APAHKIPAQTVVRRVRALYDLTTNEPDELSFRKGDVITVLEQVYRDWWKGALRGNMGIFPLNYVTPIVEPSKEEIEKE

[16] = target: Sho1, P40073; details: median of control spots 1148
[17] = target: T12, Hof1, Q05080; details: median of control spots 4086
T12 sequence (Q05080 590-669, looked up): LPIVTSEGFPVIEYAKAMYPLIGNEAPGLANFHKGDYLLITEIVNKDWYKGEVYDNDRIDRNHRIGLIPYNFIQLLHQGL

[18] = target: T13, Nbp2, Q12163; details: median of control spots 357
T13 sequence (Q12163 103-180, looked up): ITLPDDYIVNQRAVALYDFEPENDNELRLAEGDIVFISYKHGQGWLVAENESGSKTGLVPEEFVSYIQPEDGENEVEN

[19] = target: Bem1-1, P29366; details: median of control spots 4282
[20] = target: T14, Bbc1, P47068; details: median of control spots 796
T14 sequence (P47068 1-78, looked up): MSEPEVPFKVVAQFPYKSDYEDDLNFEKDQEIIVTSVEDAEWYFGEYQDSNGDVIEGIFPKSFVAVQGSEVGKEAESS

[21] = target: T15, Lsb1, P53281; details: median of control spots 388
T15 sequence (P53281 45-122, looked up): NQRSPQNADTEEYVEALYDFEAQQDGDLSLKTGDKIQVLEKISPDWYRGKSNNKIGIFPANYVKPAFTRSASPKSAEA

[22] = target: T16, Lsb4, P32793; details: median of control spots 397
T16 sequence (P32793 402-468, looked up): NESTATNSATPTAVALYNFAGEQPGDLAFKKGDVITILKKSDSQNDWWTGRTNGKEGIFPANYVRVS

[23] = target: T17, Cyk3, Q07533; details: median of control spots 1451
T17 sequence (Q07533 1-83, looked up): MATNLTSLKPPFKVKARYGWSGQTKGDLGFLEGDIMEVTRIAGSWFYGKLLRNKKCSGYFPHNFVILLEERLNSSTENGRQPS

[24] = target: T18, Cdc25, P04821; details: median of control spots 969
T18 sequence (P04821 50-136, looked up): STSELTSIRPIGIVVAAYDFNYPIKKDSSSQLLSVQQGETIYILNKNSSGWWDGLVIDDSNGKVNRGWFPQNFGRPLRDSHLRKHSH

[25] = target: T19, Myo5, Q04439; details: median of control spots 471
T19 sequence (Q04439 1072-1160, looked up): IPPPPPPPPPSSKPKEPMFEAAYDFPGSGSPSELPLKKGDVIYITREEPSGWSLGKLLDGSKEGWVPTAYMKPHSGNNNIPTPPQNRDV

[26] = target: T20, Bud14, P27637; details: median of control spots 956
T20 sequence (P27637 247-328, looked up): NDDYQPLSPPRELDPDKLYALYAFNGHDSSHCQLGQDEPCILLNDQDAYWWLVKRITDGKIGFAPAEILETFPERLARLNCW

[27] = target: T21, Sla1-3, P32790; details: median of control spots 5475
T21 sequence (P32790 344-424, looked up): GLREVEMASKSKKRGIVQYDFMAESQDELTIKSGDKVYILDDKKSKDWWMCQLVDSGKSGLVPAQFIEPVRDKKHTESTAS

Chain of Bem1-2, P29366 (P29366 139-227): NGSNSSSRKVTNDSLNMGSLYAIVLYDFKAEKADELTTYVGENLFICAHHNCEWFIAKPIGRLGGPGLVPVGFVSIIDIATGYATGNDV
Chain of Sho1, P40073 (P40073 287-367): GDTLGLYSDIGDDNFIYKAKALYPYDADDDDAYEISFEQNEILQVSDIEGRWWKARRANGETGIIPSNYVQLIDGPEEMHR
Chain of Rvs167, P39743 (P39743 419-482): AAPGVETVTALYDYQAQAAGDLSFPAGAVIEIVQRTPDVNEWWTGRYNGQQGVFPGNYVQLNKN
Chain of Bem1-1, P29366 (P29366 55-141): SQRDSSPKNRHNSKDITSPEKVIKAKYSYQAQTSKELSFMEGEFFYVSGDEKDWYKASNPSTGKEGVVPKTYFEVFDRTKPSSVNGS

Binder	SPOT intensity [1]	SPOT intensity [2]	SPOT intensity [3]	SPOT intensity [4]	SPOT intensity [5]	SPOT intensity [6]	SPOT intensity [7]	SPOT intensity [8]	SPOT intensity [9]	SPOT intensity [10]	SPOT intensity [11]	SPOT intensity [12]	SPOT intensity [13]	SPOT intensity [14]	SPOT intensity [15]	SPOT intensity [16]	SPOT intensity [17]	SPOT intensity [18]	SPOT intensity [19]	SPOT intensity [20]	further results
TTAPALPSLPPPPLL	0	0	2	4	0	0	0	728	0	0	0	0	0	0	0	0	6110	0	0	0	SPOT intensity [21]: 0; SPOT intensity [22]: 0; SPOT intensity [23]: 0; SPOT intensity [24]: 0; SPOT intensity [25]: 651; SPOT intensity [26]: 0; SPOT intensity [27]: 0
SSSSTPPTLPPRRIE	5650	0	0	365	0	0	58	99	0	1	0	1090	0	19	9	0	5	0	0	11	SPOT intensity [21]: 1360; SPOT intensity [22]: 907; SPOT intensity [23]: 0; SPOT intensity [24]: 2; SPOT intensity [25]: 11; SPOT intensity [26]: 0; SPOT intensity [27]: 1
TTNRGPPPLPPRANV	4620	0	8	470	0	0	48	129	11	0	0	892	0	48	750	58	425	0	0	33	SPOT intensity [21]: 1110; SPOT intensity [22]: 743; SPOT intensity [23]: 0; SPOT intensity [24]: 0; SPOT intensity [25]: 206; SPOT intensity [26]: 1; SPOT intensity [27]: 1
PLQSKIPMLPSRRTM	1570	0	0	329	0	0	280	102	0	14	0	635	0	124	3	21	186	12	1	29	SPOT intensity [21]: 396; SPOT intensity [22]: 960; SPOT intensity [23]: 2; SPOT intensity [24]: 0; SPOT intensity [25]: 35; SPOT intensity [26]: 0; SPOT intensity [27]: 0
